According to ChEMBL document CHEMBL1136204, “Thymidine and thymidine-5'-O-monophosphate analogues as inhibitors of Mycobacterium tuberculosis thymidylate kinase” (Bioorg Med Chem Lett, 2003):

Legend:
[1] = substrate: Cc1cn([C@H]2C[C@H](O)[C@@H](COP(=O)(O)O)O2)c(=O)[nH]c1=O; assay: Affinity towards thymidine monophosphate kinase (TMPKmt) in Mycobacterium tuberculosis using HPLC chromatography test
[2] = substrate: Cc1cn([C@H]2C=C[C@@H](COP(=O)(O)O)O2)c(=O)[nH]c1=O; assay: Affinity towards thymidine monophosphate kinase (TMPKmt) in Mycobacterium tuberculosis

B1: Thymidylate kinase (Mycobacterium tuberculosis), P9WKE1 (protein)
chain: MLIAIEGVDGAGKRTLVEKLSGAFRAAGRSVATLAFPRYGQSVAADIAAEALHGEHGDLASSVYAMATLFALDRAGAVHTIQGLCRGYDVVILDRYVASNAAYSAARLHENAAGKAAAWVQRIEFARLGLPKPDWQVLLAVSAELAGERSRGRAQRDPGRARDNYERDAELQQRTGAVYAELAAQGWGGRWLVVGADVDPGRLAATLAPPDVPS
Question: How did the Km [1] turn out when B1 was run?
Answer: The Km was 40 µM.

Question: What about the Km [2] of the same protein?
Answer: Its Km is 140 µM.
